The record followed here is the supplement of paper PMC10567573.

B1: TRIM55 (parent)
chain: ICPICLEMFTKPVVILPCQHNLCR
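Also: lentivirally expressed fusions sorted by FACS into six bins by GFP to DsRed ratio, PSI derived from sequencing read proportions per bin multiplied by bin number.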

Variants of B1 are the subject of the data set. The data set is described as follows: protein stability index of a GFP-peptide fusion (GPS, HEK-293T) (PSI 1-6); higher = more stable. The note with it: c terminus: a fixed tail appended.
For ICPICLEMFTKPVVITPCQHNLCR [L16T], the protein stability index was 2.77.
ICPICLEMFTKPVVIYPCQHNLCR [L16Y]: the protein stability index worked out at 2.39.
The same measure for ICPICLEMFTKPVVIWPCQHNLCR [L16W]: 2.38.
Consider ICPICLEMFTKPVVIQPCQHNLCR [L16Q], for which the protein stability index is 2.62.
Regarding ICPICLEMFTKPVVINPCQHNLCR [L16N], the protein stability index was 2.67.
For ICPICLEMFTKPVVIRPCQHNLCR [L16R] the value was 2.24; for ICPICLEMFTKPVVIPPCQHNLCR [L16P], 3.02; for ICPICLEMFTKPVVIVPCQHNLCR [L16V], 2.68.
Turning to ICPICLEMFTKPVVISPCQHNLCR [L16S], the protein stability index worked out at 2.4.
The same measure for ICPICLEMFTKPVVIMPCQHNLCR [L16M]: 2.38.
The same measure for ICPICLEMFTKPVVILRCQHNLCR [P17R]: 2.17; for ICPICLEMFTKPVVILTCQHNLCR [P17T]: 2.32.
For ICPICLEMFTKPVVILVCQHNLCR [P17V] the value was 2.33; for ICPICLEMFTKPVVILFCQHNLCR [P17F], 2.53.
As to ICPICLEMFTKPVVILSCQHNLCR [P17S], the protein stability index came out at 2.91.
For ICPICLEMFTKPVVILLCQHNLCR [P17L] the value was 2.44.
The same measure for ICPICLEMFTKPVVILNCQHNLCR [P17N]: 1.86; for ICPICLEMFTKPVVILECQHNLCR [P17E]: 2.62; for ICPICLEMFTKPVVILQCQHNLCR [P17Q]: 2.
For the variant ICPICLEMFTKPVVILACQHNLCR [P17A], the protein stability index is 1.97.
The same measure for ICPICLEMFTKPVVILYCQHNLCR [P17Y]: 1.99; for ICPICLEMFTKPVVILHCQHNLCR [P17H]: 2.35.
For ICPICLEMFTKPVVILMCQHNLCR [P17M], the protein stability index turned out to be 1.7.
For ICPICLEMFTKPVVILICQHNLCR [P17I] the value was 2.18.
ICPICLEMFTKPVVILDCQHNLCR [P17D]: the protein stability index was 2.27.
For ICPICLEMFTKPVVILWCQHNLCR [P17W] the value was 2.31; for ICPICLEMFTKPVVILCCQHNLCR [P17C], 1.8; for ICPICLEMFTKPVVILKCQHNLCR [P17K], 1.93.
On to ICPICLEMFTKPVVILGCQHNLCR [P17G], for which the protein stability index turned out to be 1.83.
With ICPICLEMFTKPVVILPCTHNLCR [Q19T], the protein stability index worked out at 1.98.
On to ICPICLEMFTKPVVILPCVHNLCR [Q19V], for which the protein stability index came out at 2.18.
The same measure for ICPICLEMFTKPVVILPCFHNLCR [Q19F]: 2.05; for ICPICLEMFTKPVVILPCPHNLCR [Q19P]: 2.12.
For ICPICLEMFTKPVVILPCHHNLCR [Q19H] the value was 2.09.
The same measure for ICPICLEMFTKPVVILPCMHNLCR [Q19M]: 2.15; for ICPICLEMFTKPVVILPCKHNLCR [Q19K]: 2.01.
In the case of ICPICLEMFTKPVVILPCSHNLCR [Q19S], the protein stability index came out at 2.23.
The same measure for ICPICLEMFTKPVVILPCCHNLCR [Q19C]: 1.98; for ICPICLEMFTKPVVILPCIHNLCR [Q19I]: 2.68; for ICPICLEMFTKPVVILPCWHNLCR [Q19W]: 1.61.
For ICPICLEMFTKPVVILPCEHNLCR [Q19E] the value was 2.28; for ICPICLEMFTKPVVILPCLHNLCR [Q19L], 1.84.
As for ICPICLEMFTKPVVILPCDHNLCR [Q19D], the protein stability index came to 2.54.
The same measure for ICPICLEMFTKPVVILPCGHNLCR [Q19G]: 2.85; for ICPICLEMFTKPVVILPCNHNLCR [Q19N]: 2.34.
As to ICPICLEMFTKPVVILPCAHNLCR [Q19A], the protein stability index was 2.05.
For ICPICLEMFTKPVVILPCYHNLCR [Q19Y] the value was 2.31; for ICPICLEMFTKPVVILPCRHNLCR [Q19R], 2.25.
With ICPICLEMFTKPVVILPCQHNICR [L22I], the protein stability index was determined as 2.31.
As for ICPICLEMFTKPVVILPCQHNTCR [L22T], the protein stability index came out at 2.17.
For ICPICLEMFTKPVVILPCQHNDCR [L22D] the value was 2.64; for ICPICLEMFTKPVVILPCQHNKCR [L22K], 2.38; for ICPICLEMFTKPVVILPCQHNYCR [L22Y], 2.08.
ICPICLEMFTKPVVILPCQHNPCR [L22P]: the protein stability index came to 2.29.
For ICPICLEMFTKPVVILPCQHNVCR [L22V] the value was 2.55; for ICPICLEMFTKPVVILPCQHNRCR [L22R], 2.51.
As for ICPICLEMFTKPVVILPCQHNWCR [L22W], the protein stability index turned out to be 2.44.
In the case of ICPICLEMFTKPVVILPCQHNCCR [L22C], the protein stability index turned out to be 2.04.
For ICPICLEMFTKPVVILPCQHNECR [L22E] the value was 2.45; for ICPICLEMFTKPVVILPCQHNFCR [L22F], 1.99.
For the variant ICPICLEMFTKPVVILPCQHNHCR [L22H], the protein stability index turned out to be 2.48.
Take ICPICLEMFTKPVVILPCQHNGCR [L22G]: the protein stability index is 2.44.
For ICPICLEMFTKPVVILPCQHNNCR [L22N] the value was 2.54.
For ICPICLEMFTKPVVILPCQHNMCR [L22M] the value was 3.14.
The same measure for ICPICLEMFTKPVVILPCQHNACR [L22A]: 2.36; for ICPICLEMFTKPVVILPCQHNSCR [L22S]: 2.4.
Turning to ICPICLEMFTKPVVILPCQHNQCR [L22Q], the protein stability index turned out to be 2.72.
For ICPICLEMFTKPVVILPCQSNLCR [H20S] the value was 2.12; for ICPICLEMFTKPVVILPCQENLCR [H20E], 1.68.
As to ICPICLEMFTKPVVILPCQYNLCR [H20Y], the protein stability index worked out at 1.52.
The same measure for ICPICLEMFTKPVVILPCQANLCR [H20A]: 2.22; for ICPICLEMFTKPVVILPCQRNLCR [H20R]: 1.45; for ICPICLEMFTKPVVILPCQTNLCR [H20T]: 1.54.
For ICPICLEMFTKPVVILPCQVNLCR [H20V] the value was 1.34.
As for ICPICLEMFTKPVVILPCQWNLCR [H20W], the protein stability index amounted to 1.27.
The same measure for ICPICLEMFTKPVVILPCQNNLCR [H20N]: 1.88; for ICPICLEMFTKPVVILPCQCNLCR [H20C]: 2.23; for ICPICLEMFTKPVVILPCQMNLCR [H20M]: 1.54.
Regarding ICPICLEMFTKPVVILPCQQNLCR [H20Q], the protein stability index turned out to be 2.2.
The same measure for ICPICLEMFTKPVVILPCQPNLCR [H20P]: 2.23.
The same measure for ICPICLEMFTKPVVILPCQLNLCR [H20L]: 1.91.
For the variant ICPICLEMFTKPVVILPCQDNLCR [H20D], the protein stability index is 2.14.
With ICPICLEMFTKPVVILPCQGNLCR [H20G], the protein stability index was determined as 2.08.
For ICPICLEMFTKPVVILPCQINLCR [H20I] the value was 1.45.
As for ICPICLEMFTKPVVILPCQFNLCR [H20F], the protein stability index was determined as 2.77.
Take ICPICLEMFTKPVVILPCQKNLCR [H20K]: the protein stability index stood at 1.87.
The same measure for ICPICLEMFTKPVVILPHQHNLCR [C18H]: 2.27; for ICPICLEMFTKPVVILPPQHNLCR [C18P]: 2.11; for ICPICLEMFTKPVVILPAQHNLCR [C18A]: 1.75.
The same measure for ICPICLEMFTKPVVILPWQHNLCR [C18W]: 1.95; for ICPICLEMFTKPVVILPIQHNLCR [C18I]: 2.02.
Consider ICPICLEMFTKPVVILPRQHNLCR [C18R], for which the protein stability index was 1.45.
With ICPICLEMFTKPVVILPTQHNLCR [C18T], the protein stability index was found to be 1.98.
For ICPICLEMFTKPVVILPDQHNLCR [C18D] the value was 2.53.
